Laboratory results as given in article PMC5192466, “Kunitz-Type Peptide HCRG21 from the Sea Anemone Heteractis crispa Is a Full Antagonist of the TRPV1 Receptor” (Marine Drugs, 2016).
Where two headings read alike, the source gives them in different places. Where no end group is shown, it is not given here.

Key:
α-chymotrypsin [1] = experiment: enzyme inhibition kinetics (Dixon method); trypsin with BAPNA, α-chymotrypsin with BTEE as substrate; substrate concentrations 133 and 65 mM; both enzymes 215 nM; peptide 0 up to 3.2 mM; three parallel experiments
trypsin [2] = settings: cited from earlier work
Excerpt: The HCGS peptide subfamily and their evolutionary relationships were described in details previously. […] It is shown, that the first known H. crispa analgesic Kunitz-type peptides, APHC1–APHC3, have a Thr residue (instead of Lys or Arg) at position P1, similar to other representatives of the analgesic cluster (Figure 1a,b).

α-chymotrypsin [3] = molecular target: α-chymotrypsin (Bos taurus, UniProt P00766); settings: cited from earlier work
Excerpt: The HCGS peptide subfamily and their evolutionary relationships were described in details previously. […] Moreo ...

TRPV1 [4] = molecular target: T1, TRPV1 (Rattus norvegicus, UniProt O35433); experiment: cell-based
T1 construct: expressed in transfected cells; host or cells: Xenopus laevis oocytes injected with cRNA
T1 sequence (O35433 whole entry): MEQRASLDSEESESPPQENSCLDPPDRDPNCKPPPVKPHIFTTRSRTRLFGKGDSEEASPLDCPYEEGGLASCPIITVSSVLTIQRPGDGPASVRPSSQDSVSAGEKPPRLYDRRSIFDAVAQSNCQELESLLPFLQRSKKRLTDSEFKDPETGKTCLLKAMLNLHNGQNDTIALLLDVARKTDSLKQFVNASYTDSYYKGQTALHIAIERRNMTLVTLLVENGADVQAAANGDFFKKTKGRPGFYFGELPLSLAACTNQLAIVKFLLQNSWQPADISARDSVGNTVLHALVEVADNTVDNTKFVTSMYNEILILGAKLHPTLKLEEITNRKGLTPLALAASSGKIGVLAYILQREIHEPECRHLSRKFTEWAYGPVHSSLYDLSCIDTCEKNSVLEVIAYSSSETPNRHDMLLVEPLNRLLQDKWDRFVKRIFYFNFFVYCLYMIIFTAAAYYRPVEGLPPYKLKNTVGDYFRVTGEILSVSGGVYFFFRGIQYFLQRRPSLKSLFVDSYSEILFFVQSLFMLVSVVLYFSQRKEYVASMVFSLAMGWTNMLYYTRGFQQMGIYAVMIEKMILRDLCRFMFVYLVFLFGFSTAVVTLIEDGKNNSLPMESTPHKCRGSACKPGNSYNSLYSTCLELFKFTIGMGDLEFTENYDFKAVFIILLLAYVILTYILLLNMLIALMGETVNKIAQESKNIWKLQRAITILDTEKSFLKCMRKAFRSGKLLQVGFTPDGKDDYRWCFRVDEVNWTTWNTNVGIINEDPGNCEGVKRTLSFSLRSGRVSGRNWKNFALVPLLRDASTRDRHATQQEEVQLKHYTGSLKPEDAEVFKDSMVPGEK
Method: To control the expression level of the TRPV1 channels, experiments were initiated with a first activation of TRPV1 with 1 μM capsaicin (CAP). […] This activation gives an inward non-selective cation current. […] Before application of HCRG21, cells are washed with ND96 to remove any presence of […]. […] However, when rHCRG21 was co-applied together with the agonist capsaicin, a reduction of the current was observed (Figure 5b). […] A concentration–response curve was constructed in order to assess the concentration dependence of the rHCRG21 induced effect. The IC50 value yielded 6.9 ± 0.4 μM (Figure 5c).
Figure 5 Activity profile of rHCRG21 (10 μM) on the TRPV1 receptor. The figures show the results of one representative experiment. Whole-cell current traces in control and rHCRG21 conditions are shown. […] All data represent the average of at least three independent experiments (n ≥ 3) and are presented as mean ± standard error; (c) Concentration–response curve for rHCRG21 on TRPV1 receptor.
For the expression of rKv1.1, hKv1.3, rKv1.4, rKv1.5, rKv1.6, Shaker IR, hERG, and TRPV1 in Xenopus oocytes, the linearized plasmids were transcribed using the T7 or SP6 mMESSAGE-mMACHINE transcription kit (Ambion, Austin, TX, USA). The harvesting of stage V–VI oocytes from anaesthetized female Xenopus laevis frog was previously described. Oocytes were injected with 50 nL of cRNA at a concentration of 1 ng/nL using a micro-injector (Drummond Scientific, Broomall, PA, USA). The oocytes were incubated in a solution containing (in mM): NaCl, 96; KCl, 2; CaCl2, 1.8; MgCl2, 2 and HEPES, 5 (pH 7.4), supplemented with 50 mg/L gentamicin sulfate.
Two-electrode voltage-clamp recordings were performed at room temperature (18–22 °C) using a Geneclamp 500 amplifier (Molecular Devices, Sunnyvale, CA, USA) controlled by a pClamp data acquisition system (Axon Instruments, Foster City, CA, USA). Whole cell currents from oocytes were recorded 1–4 days after injection. Bath solution composition was ND96 (in mM): NaCl, 96; KCl, 2; CaCl2, 1.8; MgCl2, 2, and HEPES, 5 (pH 7.4). Voltage and current electrodes were filled with 3 M KCl. Resistances of both electrodes were kept between 0.8 and 1.5 MΩ. The elicited currents were filtered and sampled at, respectively, 1 kHz and 10 kHz (for potassium currents) and at, respectively, 0.2 kHz and 0.5 kHz (for TRPV1 currents), using a four-pole low-pass Bessel filter. Leak subtraction was performed using a –P/4 protocol. KV1.1–KV1.6 and Shaker currents were evoked by 500 ms depolarizations to 0 mV followed by a 500 ms pulse to −50 mV, from a holding potential of −90 mV. Current traces of hERG channels were elicited by applying a +40 mV prepulse for 2 s followed by a step to −120 mV for 2 s. TRPV1 currents were measured in ND96 solution using a protocol of −90 mV during 400 s. The recording chamber was perfused at a rate of 2 mL·min^−1 with a ND96 solution. As previously described, capsaicin (2 μM) was used as an agonist and capsazepine (10 μM) as an antagonist of TRPV1. Capsaicin and capsazepine were purchased from Sigma. All data represent at least 3 independent experiments (n ≥ 3) in which independent experiments represent experiments on different cells expressing TRPV1 channel and are presented as mean ± standard error.

TRPV1 [5] = molecular target: T1, TRPV1; settings: cited from earlier work
Excerpt: They are the first sea anemone peptide characterized as TRPV1 modulators. […] It belongs to the family of polymodal TRP channels, serving as a molecular cellular sensor, which is activated by a wide spectrum of physical and chemical stimuli. They have diverse biophysical properties such as cation selectivity, specific mechanisms of activation, and they play the main role in ma ... || To control the expression level of the TRPV1 channels, experiments were initiated with a first activation of TRPV1 with 1 μM capsaicin (CAP). […] This activation gives an inward non-selective cation current. […] Before application of HCRG21, cells are washed with ND96 to remove any presence of capsazepine. […] Similarly ... || (+ 3 further places)

[6] = tested on: serine, cysteine and aspartate proteases; settings: cited from earlier work
Excerpt: To date, a number of highly homologous native serine protease inhibitors has been isolated from different species: Anemonia sulcata, Heteractis crispa, Anthopleura aff. xanthogrammica, Anthopleura fuscoviridis, Stichodactyla helianthus, and Stichodactyla haddoni.

[7] = tested on: voltage-gated potassium channels; settings: cited from earlier work
Excerpt: For many potent Kv channel blocking toxins, such as α-DTX, DTX-K, and DTX-I, isolated from the snake Dendroaspis polylepis, it has been well established that mainly a series of positive charged residues (for example, R3, R4, K5, K37, K39, K46, and K50 in α-DTX) are crucial for interaction with the Kv channel. […] Although there are many positively charged residues present in the sequence of HCRG21, they do differ in position with known Kv1.1–Kv1.6 blockers, such as α-DTX, DTX-K, DTX-I, AsKC1, and ShPI-1 (Figure 1c). […] Noteworthy, several positively charged residues are conserved between HCRG21 and ShPI-1 (in positions 8, 19, 28, 51, and 55, Figure 1c). Therefore, other Kv channel isoforms should be tested for their sensitivity to HCRG21 as ...

trypsin [8] = experiment: enzyme inhibition kinetics (Dixon method); trypsin with BAPNA, α-chymotrypsin with BTEE as substrate; substrate concentrations 133 and 65 mM; both enzymes 215 nM; peptide 0 up to 3.2 mM; three parallel experiments
[9] = molecular target: transient receptor potential family member vanilloid 1 (TRPV1) (UniProt O35433)
Chain of transient receptor potential family member vanilloid 1 (TRPV1) (O35433 whole entry): as above

Work on “recombinant HCRG21, Kunitz-type peptide from the sea anemone Heteractis crispa (from UniProt P0DL86 1-56)” yielded a Ki (α-chymotrypsin [1]) of 700 nM.

In the case of “AsKC2: kalicludine from Anemonia sulcata (UniProt Q9TWF9) (INKDCLLPMDVGRCRARHPRYYYNSSSRRCEKFIYGGCRGNANNFITKKECEKVCGVR; ends and bridges not checked; cysteine pairing not given here; UniProt Q9TWF9 1-58, looked up)”, the Ki (trypsin [2]) is listed as < 0.3 nM.

For “APHC3: H. crispa analgesic Kunitz-type peptide (UniProt C0HJF3)”, the Ki (α-chymotrypsin [3]) is listed as 7000 nM.

For “APHC1: H. crispa analgesic Kunitz-type peptide (UniProt B2G331)”, the Ki (α-chymotrypsin [3]) is given as 5000 nM.

For `Oc1cc2c(cc1O)CN(C(=S)NCCc1ccc(Cl)cc1)CCC2` [capsazepine, reference compound], the “effect on capsaicin-activated TRPV1 (control antagonist)” value (TRPV1 [4]) was “closes the channels allowing the current levels to return to zero”.

For “APHC2: H. crispa analgesic Kunitz-type peptide (UniProt C0HJF4)”, the Ki (α-chymotrypsin [3]) is given as 4500 nM.

In the case of “APHC1: H. crispa analgesic Kunitz-type peptide (UniProt B2G331) (GSICLEPKVVGPCTAYFRRFYFDSETGKCTVFIYGGCEGNGNNFETLRACRAICRA; three disulfides (Kunitz fold)) [reference compound]”, the EC50 (TRPV1 [5]; read-out: EC50, decrease of capsaicin induced currents through TRPV1) is listed as 54 ± 4 nM.

For “AsKC3: Kunitz-type peptide from Anemonia sulcata (UniProt Q9TWF8) (INGDCELPKVVGRCRARFPRYYYNLSSRRCEKFIYGGCGGNANNFHTLEECEKVCGVRS; ends and bridges not checked; cysteine pairing not given here; UniProt Q9TWF8 1-59, looked up)”, the Ki (trypsin [2]) is listed as < 0.3 nM.

In the case of “SHPI-1: protease inhibitor from the sea anemone Stichodactyla helianthus (UniProt P31713) (SICSEPKKVGRCKGYFPRFYFDSETGKCTPFIYGGCGGNGNNFETLHQCRAICRA; UniProt P31713 1-55, looked up)”, the protease inhibitory specificity [6] is given as “inhibits not only serine but also cysteine and aspartate proteases”, the Ki (trypsin [2]) is given as 0.11 nM and the “binding to Kv1.1, Kv1.2, and Kv1.6 channels” value [7] is given as “binds with high affinity”. The Ki (α-chymotrypsin [3]) was 2.3 nM.

In the case of “AsKC1: kalicludine from Anemonia sulcata (UniProt Q9TWG0) (INKDCLLPMDVGRCRASHPRYYYNSSSKRCEKFIYGGCRGNANNFHTLEECEKVCGVR; ends and bridges not checked; cysteine pairing not given here; UniProt Q9TWG0 1-58, looked up)”, the Ki (trypsin [2]) is given as < 0.3 nM.

For `COc1cc(CNC(=O)CCCC/C=C/C(C)C)ccc1O` [capsaicin, reference compound], the “effect on TRPV1 (control agonist)” value (TRPV1 [4]) was “opens the channels”.

B1: DkTx: double-knot toxin from the Chinese bird spider Ornithoctonus huwena (peptide, UniProt P0CH43 1-79, looked up)
Tau-theraphotoxin-Hs1a: DCAKEGEVCSWGKKCCDLDNFYCPMEFIPHCKKYKPYVPVTTNCAKEGEVCGWGSKCCHGLDCPLAFIPYCEKYRGRND
In the case of B1, the “effect of DkTx on TRPV1 current” value (TRPV1 [5]; conformational change in the receptor upper pore region) is listed as “enhances the ion current through the channel” and the TRPV1 agonism (TRPV1 [5]; ref 48 (DkTx), ref 49 (VaTx1–VaTx3), ref 50 (BmP01)) is listed as “agonists”.

B2: recombinant HCRG21, Kunitz-type peptide from the sea anemone Heteractis crispa (peptide)
chain: RGICSEPKVVGPCTAYFRRFYFDSETGKCTPFIYGGCEGNGNNFETLRACRAICRA
In the case of B2, the Ki (trypsin [8]) is reported as 200 nM and the IC50 of the inhibition of the capsaicin-induced current through TRPV1 in X. laevis oocytes (two-electrode voltage clamp, peptide co-applied with capsaicin; concentration-response curve) [9] is reported as 6900 nM.
